How the values were obtained:
recombinant human CD14 = biological target: T1, recombinant human CD14 (human, UniProt P08571 20-345); assay: flow cytometry of receptor-conjugated beads
T1 sequence: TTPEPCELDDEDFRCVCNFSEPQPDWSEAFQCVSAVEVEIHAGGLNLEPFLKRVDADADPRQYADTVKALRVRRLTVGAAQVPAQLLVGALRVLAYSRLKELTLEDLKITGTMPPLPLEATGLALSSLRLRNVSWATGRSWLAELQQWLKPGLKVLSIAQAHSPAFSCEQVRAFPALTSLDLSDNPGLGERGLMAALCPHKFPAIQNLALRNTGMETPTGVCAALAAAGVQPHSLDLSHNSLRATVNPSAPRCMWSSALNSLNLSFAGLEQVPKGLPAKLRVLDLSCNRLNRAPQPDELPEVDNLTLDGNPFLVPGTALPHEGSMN

recombinant human TLR2 = recombinant human TLR2 (human, UniProt O60603); assay: flow cytometry of receptor-conjugated beads
Sequence of recombinant human TLR2 (O60603 21-588): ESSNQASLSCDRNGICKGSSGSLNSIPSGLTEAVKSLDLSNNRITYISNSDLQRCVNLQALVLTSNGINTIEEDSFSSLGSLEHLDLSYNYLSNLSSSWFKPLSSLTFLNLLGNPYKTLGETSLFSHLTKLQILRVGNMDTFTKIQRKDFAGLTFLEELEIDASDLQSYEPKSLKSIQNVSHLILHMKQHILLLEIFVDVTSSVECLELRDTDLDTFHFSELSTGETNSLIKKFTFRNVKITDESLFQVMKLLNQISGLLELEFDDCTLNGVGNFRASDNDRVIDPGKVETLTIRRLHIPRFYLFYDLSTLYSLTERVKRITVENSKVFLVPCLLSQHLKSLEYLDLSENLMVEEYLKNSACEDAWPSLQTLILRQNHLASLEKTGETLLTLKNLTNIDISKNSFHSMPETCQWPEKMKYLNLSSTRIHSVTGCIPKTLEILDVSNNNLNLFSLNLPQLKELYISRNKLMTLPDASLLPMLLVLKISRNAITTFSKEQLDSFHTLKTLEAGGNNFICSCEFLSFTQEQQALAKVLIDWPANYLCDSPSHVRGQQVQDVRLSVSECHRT

Binder	binding result (recombinant human CD14)	binding result (recombinant human TLR2)
GGLSSVGGGS [KAMP-10]	binds	binds
RAIGGGLSSVGGGSSTIK [KAMP-18C]	binds	binds

— doi:10.1101/2021.01.18.427180 (bioRxiv, 2021)
